This is an account of results in paper PMC11272940, “UNC-45 assisted myosin folding depends on a conserved FX3HY motif implicated in Freeman Sheldon Syndrome” (Nature Communications, 2024).

Sequences and labels used below:
B2: Full length C. elegans UNC-45 (from E. coli) (natural protein, UniProt G5EG62 1-961, looked up)
chain: MVARVQTAEEIRDEGNAAVKDQDYIKADELYTEALQLTTDEDKALRPVLYRNRAMARLKRDDFEGAQSDCTKALEFDGADVKALFRRSLAREQLGNVGPAFQDAKEALRLSPNDKGIVEVLQRLVKANNDKIKQTTSLANKVTDMEKLAFRGEAKDTEQKMTALNNLLVLCRESESGATGVWNQGALVPFVLNLINDASENEEVTVTAIRILDETIKNSVRCMKFLAMHDPDGPKSVRFVCRLMCKKSTKDFVDATGILVQRVFNAMAKMDRQKEMKPDPEVAEANKIWIIRVLLELQEMLQDPKVGAVQRETCIDLFLKNLMHMDGGIPRGWSWKFVEERGLLALLDVASQIPELCEYPVSAETRQHVAICLQRLEEDMVFDTKRTIFKEKVDMFFNALISRCTNDDEGHKYRIKLSCFLITMLQGPVDIGINLITNDQLTPIMLEMAASQDHLMQGIAAELIVATVSKHERAINMLKVGIPVLRALYDSEDPTVKVRALVGLCKIGAAGGDDISKATMKEEAVISLAKTCKKFLLETEKYSVDIRRYACEGLSYLSLDADVKEWIVDDSLLLKALVLLAKKAGALCVYTLATIYANLSNAFEKPKVDEEMVKLAQFAKHHVPETHPKDTEEYVEKRVRALVEEGAVPACVAVSKTESKNALELIARSLLAFAEYEDLRGRIIAEGGTVLCLRLTKEASGEGKIKAGHAIAKLGAKADPMISFPGQRAYEVVKPLCDLLHPDVEGKANYDSLLTLTNLASVSDSIRGRILKEKAIPKIEEFWFMTDHEHLRAAAAELLLNLLFFEKFYEETVAPGTDRLKLWVLYSAEVEEERLSRASAAGFAILTEDENACARIMDEIKSWPEVFKDIAMHEDAETQRRGLMGIANIMHSSNKLCSEIVSSEVFRVLVAVTKLGTINQERAGSTEQAKRGLEAAEKFGLIKATDREIYERENQMSTIQE
notes: UNC-45 chaperone, C. elegans; The C-terminal Strep tag is stated for the peptide spot assay; also called wildtype UNC-45; purified UNC-45; source: E. coli, purified (HisTrap or StrepTrap, SEC); not shown: Strep, C-terminal, kept

For data set [1], the target named is B2. Nature of the data set: cross-linking; XL-MS of the in vitro reconstituted UFD-2:UNC-45:myo^UF complex; 0.25 mM DSS, 20 mM HEPES pH 8.0, 150 mM NaCl, 25 °C, 30 min. The settings on record: both partners purified.
Data set [2] concerns the target T1, C. elegans UNC-45 (co-expressed with the MHC-B motor domain in insect cells) (C. elegans, UniProt G5EG62 1-961).
T1 construct: UNC-45 chaperone, C. elegans; also called UNC-45 WT; wildtype UNC-45; source: High Five insect cells, baculovirus, co-expressed with myosin; purified as a complex (HisTrap, Strep-Tactin, SEC); in cleared lysate in the solubility assay
T1 sequence: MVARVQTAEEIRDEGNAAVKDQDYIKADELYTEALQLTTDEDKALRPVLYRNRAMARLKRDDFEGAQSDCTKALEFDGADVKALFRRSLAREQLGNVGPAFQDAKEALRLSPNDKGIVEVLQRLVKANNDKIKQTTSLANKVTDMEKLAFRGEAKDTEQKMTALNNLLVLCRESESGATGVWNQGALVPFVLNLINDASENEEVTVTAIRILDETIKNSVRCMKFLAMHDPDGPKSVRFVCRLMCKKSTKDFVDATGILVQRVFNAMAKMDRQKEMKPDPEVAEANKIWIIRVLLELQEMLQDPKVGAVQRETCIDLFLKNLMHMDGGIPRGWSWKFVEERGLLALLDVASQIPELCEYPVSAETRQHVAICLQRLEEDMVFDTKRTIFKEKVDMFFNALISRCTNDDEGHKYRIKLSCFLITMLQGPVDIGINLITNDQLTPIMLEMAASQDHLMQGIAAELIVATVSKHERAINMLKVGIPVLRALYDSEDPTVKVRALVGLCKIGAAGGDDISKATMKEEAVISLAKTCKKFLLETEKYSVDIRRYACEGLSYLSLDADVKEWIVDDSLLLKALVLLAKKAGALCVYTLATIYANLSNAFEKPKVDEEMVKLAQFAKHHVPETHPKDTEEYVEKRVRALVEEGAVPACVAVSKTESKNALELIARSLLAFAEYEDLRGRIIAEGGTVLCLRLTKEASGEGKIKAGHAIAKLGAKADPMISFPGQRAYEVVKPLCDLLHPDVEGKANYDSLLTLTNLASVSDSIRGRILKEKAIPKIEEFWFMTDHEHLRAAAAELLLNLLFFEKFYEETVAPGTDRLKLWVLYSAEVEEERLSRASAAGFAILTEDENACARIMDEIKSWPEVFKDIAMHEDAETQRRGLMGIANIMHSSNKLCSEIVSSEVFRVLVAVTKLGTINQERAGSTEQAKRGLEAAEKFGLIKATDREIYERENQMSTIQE
The data set is described as follows: tandem affinity co-purification + SEC; co-expressed in insect cells; HisTrap (myosin) then Strep-Tactin (UNC-45), then Superdex 200 in 20 mM HEPES pH 8.0, 150 mM NaCl. The settings on record: partners not purified.

In data set [3] the target is T2, 547–588 myosin peptide (MHC-B) (C. elegans, UniProt P02566 547-588).
T2 construct: also called native peptide; identified myosin ligand; source: synthetic peptide
T2 peptide (looked up): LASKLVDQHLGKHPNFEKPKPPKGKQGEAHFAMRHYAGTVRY
The data set is described as follows: thermal shift assay; 1 μM UNC-45 or UNC-45 ΔUCS, 2 mM peptide, SYPRO Orange, 20 mM HEPES pH 8.0, 150 mM NaCl; triplicates. The settings on record: both partners purified.

The target of data set [4] is T3, Kluyveromyces lactis SHE4, wildtype (Kluyveromyces lactis).
T3 chain: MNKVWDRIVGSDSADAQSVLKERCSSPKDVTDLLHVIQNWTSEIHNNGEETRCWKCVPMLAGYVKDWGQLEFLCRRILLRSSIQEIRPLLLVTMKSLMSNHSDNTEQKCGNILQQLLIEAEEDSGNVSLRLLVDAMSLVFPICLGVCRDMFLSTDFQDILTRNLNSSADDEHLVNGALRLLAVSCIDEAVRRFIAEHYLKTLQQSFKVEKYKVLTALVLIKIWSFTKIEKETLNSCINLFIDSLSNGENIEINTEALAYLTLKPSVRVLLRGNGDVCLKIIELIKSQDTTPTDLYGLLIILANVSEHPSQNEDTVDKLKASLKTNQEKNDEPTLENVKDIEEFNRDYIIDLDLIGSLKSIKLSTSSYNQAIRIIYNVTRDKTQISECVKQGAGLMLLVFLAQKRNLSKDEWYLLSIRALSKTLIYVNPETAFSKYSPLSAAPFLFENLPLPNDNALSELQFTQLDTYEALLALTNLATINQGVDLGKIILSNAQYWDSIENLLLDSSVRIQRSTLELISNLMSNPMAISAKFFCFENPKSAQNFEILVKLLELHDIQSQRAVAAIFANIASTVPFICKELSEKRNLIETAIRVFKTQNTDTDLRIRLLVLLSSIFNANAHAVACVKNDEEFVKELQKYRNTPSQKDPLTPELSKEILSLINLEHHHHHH
Nature of the data set: ITC; 25 °C, VP-ITC; 10 μM SHE4 in the cell, 90 μM (N475A: 107 μM) peptide in the syringe; 10 mM HEPES pH 8.0, 150 mM NaCl, 1 mM TCEP; single site model. The settings on record: both partners purified. (Isothermal titration calorimetry measures the heat released or taken up as one component is titrated into another.)

B1: C. elegans myosin motor domain MHC-B (1-790), wildtype (domain or fragment, UniProt P02566 1-790, looked up)
chain: MEHEKDPGWQYLRRTREQVLEDQSKPYDSKKNVWIPDPEEGYLAGEITATKGDQVTIVTARGNEVTLKKELVQEMNPPKFEKTEDMSNLSFLNDASVLHNLRSRYAAMLIYTYSGLFCVVINPYKRLPIYTDSCARMFMGKRKTEMPPHLFAVSDEAYRNMLQDHENQSMLITGESGAGKTENTKKVICYFAAVGASQQEGGAEVDPNKKKVTLEDQIVQTNPVLEAFGNAKTVRNNNSSRFGKFIRIHFNKHGRLASCDIEHYLLEKSRVIRQAPGERCYHIFYQIYSDFRPELKKELLLDLPIKDYWFVAQAELIIDGIDDVEEFQLTDEAFDILNFSAVEKQDCYRLMSAHMHMGNMKFKQRPREEQAEPDGTDEAEKASNMYGIGCEEFLKALTKPRVKVGTEWVSKGQNCEQVNWAVGAMAKGLYSRVFNWLVKKCNLTLDQKGIDRDYFIGVLDIAGFEIFDFNSFEQLWINFVNEKLQQFFNHHMFVLEQEEYAREGIQWVFIDFGLDLQACIELIEKPLGIISMLDEECIVPKATDLTLASKLVDQHLGKHPNFEKPKPPKGKQGEAHFAMRHYAGTVRYNCLNWLEKNKDPLNDTVVSAMKQSKGNDLLVEIWQDYTTQEEAAAKAKEGGGGGKKKGKSGSFMTVSMLYRESLNNLMTMLNKTHPHFIRCIIPNEKKQSGMIDAALVLNQLTCNGVLEGIRICRKGFPNRTLHPDFVQRYAILAAKEAKSDDDKKKCAEAIMSKLVNDGSLSEEMFRIGLTKVFFKAGVLAHLEDIRDEKL
notes: MHC-B muscle myosin (Myo4_Cel), C. elegans, motor domain residues 1-790; the state is told by the assay; also called MHC (1-790); Myo4_Cel; source: High Five insect cells, baculovirus; purified (Ni-NTA, SEC) alone or as a complex with UNC-45; not shown: His6, C-terminal, kept
On to B1, for which the binding result in data set [1] and in data set [2] was “binds” each time.
As to B2, the “increase of melting temperature (Tm)” value in data set [3] was determined as 5.5 °C.

B3: Myo4 peptide (residues 561–573) (peptide)
peptide: WKFIVSHYAVDVEY
notes: tryptophan introduced at the N-terminus for peptide quantification; also called myosin peptide; core of the myosin motif; source: synthetic peptide (in-house, HPLC purified)
As a reminder, the Kd is the equilibrium constant for the complex coming apart. Read a high Kd as lower affinity. With B3, in data set [4], the Kd worked out at 600 nM.
